Test results published in US20250235545A1, “POLYPEPTIDE CONJUGATE AND USE THEREOF” (SHANGHAI CHIXI BIOMEDICAL TECHNOLOGY CO., LTD, priority 2024, published 2025).
In brackets after ≈: the same amount, converted by molar mass. Like-named read-outs stand apart in the source and are kept apart here. Where a SMILES comes first, the peptide text is derived from it. The star is where a group is joined. Belotecan = CC[C@@]1(O)C(=O)OCc2c1cc1n(c2=O)Cc2c-1nc1ccccc1c2CCN(C(C)C)*; X8 = CC[C@@]1(O)C(=O)OCc2c1cc1n(c2=O)Cc2c-1nc1ccccc1c2CCN(C1CCCC1)*; X7 = CC[C@@]1(O)C(=O)OCc2c1cc1n(c2=O)Cc2c-1nc1ccccc1c2CCN(C)*; Propanoyl(3-maleimido) = O=C1C=CC(=O)N1CCC(=O)*; PEG6 = NCCOCCOCCOCCOCCOCCOCCC(=O)O

What was measured:
A2780 (ovarian cancer) = assay: cells; format: cell-based; conditions: CCK8, 48 h; Table 6
Procedure, shortened: (§1)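 Cells seeded at 5,000 cells/well in RPMI1640 or DMEM high-glucose with 10% FBS and 1 mM sodium pyruvate, exposed to graded drug concentrations for 48 h at 37° C., 5% CO2; 0.1% DMSO controls. CCK8 added for ~2 h, absorbance 450 nm; survival rates and IC50 calculated.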

[1] = system: SKBR3 (breast cancer tissue); assay: cells; format: cell-based; conditions: CCK8, 48 h; Table 6
Procedure, shortened: as §1

SJSA-1 (sarcoma tissue) = assay: cells; format: cell-based; conditions: CCK8, 48 h; Table 6
Procedure, shortened: as §1

[2] = system: A549 (non-small cell lung cancer); assay: cells; format: cell-based; conditions: CCK8, 48 h; Table 6
Procedure, shortened: as §1

[3] = system: colo320 (colorectal cancer tissue); assay: cells; format: cell-based; conditions: CCK8, 48 h; Table 6
Protocol: Different types of cells were cultured with complete media (RPMI1640 (DMEM high sugar medium)+10% fetal bovine serum+1×P/S+sodium pyruvate 1 mM solution) in an incubator at 37° C. and 5% CO2 until the cells grew to a sufficient number, and the cells were collected, centrifuged at 1,000 g for 5 min, resuspended with an appropriate volume of a 10% RMPI1640 (DMEM high sugar medium) medium and adjusted to an appropriate density. In a 96-well culture plate, 100 μL of cell culture fluid containing different concentrations of drugs was added, control wells (0.1% DMSO) with only corresponding drug solvents without drugs, as well as blank wells (Blank) with only the medium but without cells were set, and three parallel wells were set in each group. After that, the cells after cell counting were inoculated onto 96-well culture plates, with 100 μL of cell suspension per well, and an inoculation concentration of the cells was 5,000 cells (100 μL)/well. The plates were then cultured in a CO2 (5%) incubator at 37° C. for 48 h. After 48 h, 10 μL of a cell proliferation staining reagent (CCK8) was added to each well, the plates were incubated in a cell incubator for around 2 h, and an absorbance at 450 nm was detected.
Cell survival rates and median inhibitory concentrations (IC50) of the drugs on the cells were calculated.

[4] = system: colo320 colorectal cancer tumor model
Procedure, shortened: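 Female BALB/c nude mice, 6–8 weeks old, received 7.5×10^6 colo320 cells subcutaneously in the right chest. Once tumors reached at least 120 mm^3 they were randomized three per group. Treatment with test agents or saline control was given once weekly for four weeks.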

[5] = Homogenate activation efficiency, heart tissue (Examples 28, 37); format: in vitro ADME; conditions: pH 5.0, 37° C., 2 h; Table 10
[6] = Tumor homogenate activation efficiency, non-small cell lung cancer tissue (Examples 28, 37); format: in vitro ADME; conditions: pH 5.0, 37° C., 2 h; Table 10
Procedure, shortened: (§2)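 Conjugate at 1 mg/ml in 50 mM MES, 250 mM NaCl, pH 5.0 was incubated with 100 μg tissue homogenate at 37° C for 2 h. HPLC tracked Belotecan release, expressed as Belotecan peak area over total area of Belotecan and all Belotecan-containing species.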

[7] = Tumor homogenate activation efficiency, colorectal cancer tissue (Example 37); format: in vitro ADME; conditions: pH 5.0, 37° C., 2 h; Table 10
Protocol: Buffer preparation: 50 mM PH buffer (MES), 250 mM NaCl, pH adjusted to 5.0 with 0.5 M of sodium hydroxide.
The polypeptide conjugate was prepared into a 1 mg/ml solution with pH 5.0 buffer, 100 μg of tumor tissue homogenate was added, (the tumor tissue homogenate was the homogenate of tumor tissues prepared with a Jingxin F6/10 handheld homogenizer), and the solution was placed at 37° C. for 2 h. The tumor tissue homogenate could effectively activate the polypeptide conjugate and release Belotecan, and the activation efficiencies of the drugs in tumor tissues were compared by HPLC allowing determination of a decrease in the compounds and an increase in Belotecan:
Release percentage=peak area of Belotecan/total peak area of Belotecan and all other Belotecan-containing compounds

[8] = Tumor homogenate activation efficiency, sarcoma tissue (Examples 28, 37); format: in vitro ADME; conditions: pH 5.0, 37° C., 2 h; Table 10
Procedure, shortened: as §2

[9] = Tumor homogenate activation efficiency, breast cancer tissue (Examples 28, 37); format: in vitro ADME; conditions: pH 5.0, 37° C., 2 h; Table 10
Procedure, shortened: as §2

[10] = system: sarcoma SJSA-1 tumor model; conditions: Table 7
Procedure, shortened: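 SJSA-1 cells (2×10^7, DMEM/10% FBS, under 15 passages) implanted subcutaneously in right chest of female BALB/c nude mice, 6-8 weeks old. At ≥100 mm^3, randomized three per group; dosing once weekly for three weeks, saline as control, day 1 = first treatment.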

[11] = Tumor homogenate activation efficiency, ovarian cancer tissue (Examples 28, 37); format: in vitro ADME; conditions: pH 5.0, 37° C., 2 h; Table 10
Procedure, shortened: as §2

[12] = MTD determination in mice (Examples 27, 36, 44); format: in vivo; conditions: female, mouse, in vivo; mice, monitored for 14 d; Table 9
Description: Test animals: 6-8 weeks old mice, all female; mice were grouped randomly, with six mice in each group, administered with drugs at different concentration gradients separately and monitored for 14 d. A mouse was euthanized at a loss of 20% of its initial weight and deemed to have died of poisoning.

[13] = 45 mg/kg once a week for four weeks, Table 8
[14] = Table 14 (Example 43), dose 45 mg/kg, once a week for four weeks, BALB/c mice
[15] = 45 mg/kg once a week for three weeks
[16] = Table 13 (Example 42), dose 45 mg/kg, once a week for four weeks, BALB/c mice
[17] = 15 mg/kg once a week for four weeks, Table 8
[18] = 15 mg/kg once a week for three weeks

| SMILES | IC50 Ovarian cancer tissue (A2780) (A2780 (ovarian cancer)) [µg/mL] | IC50 Breast cancer tissue (SKBR3) [1] [µg/mL] | IC50 Sarcoma tissue (SJSA-1) (SJSA-1 (sarcoma tissue)) [µg/mL] | IC50 Non-small cell lung cancer tissue (A549) [2] [µg/mL] | IC50 Colorectal cancer tissue (colo320) [3] [µg/mL] | Mouse weight (%) [4, 13] | Mouse weight (%) [4, 14] | Percentage of release efficiency (%) Heart tissue [5] [%] | Percentage of release efficiency (%) Non-small cell lung cancer tissue (A549) [6] [%] | Percentage of release efficiency (%) Colorectal cancer tissue (colo320) [7] [%] | Percentage of release efficiency (%) Sarcoma tissue (SJSA1) [8] [%] | Percentage of release efficiency (%) Breast cancer tissue (SKBR3) [9] [%] | Mouse weight (%) [10, 15] | Percentage of release efficiency (%) Ovarian cancer tissue (A2780) [11] [%] | MTD at 14 d [12] [mg/kg] | colo320 (colorectal cancer cell) growth rate (%) [4, 13] [%] | colo320 (colorectal cancer cell) mean tumor volume (mm^3) [4, 13] [mm^3] | Mouse weight (%) [4, 16] | colo320 (colorectal cancer cell) growth rate (%) [4, 16] [%] | colo320 (colorectal cancer cell) mean tumor volume (mm^3) [4, 16] [mm^3] | other results |
| --- | --- | --- | --- | --- | --- | --- | --- | --- | --- | --- | --- | --- | --- | --- | --- | --- | --- | --- | --- | --- | --- |
| CC[C@@]1(O)C(=O)OCc2c1cc1n(c2=O)Cc2c-1nc1ccccc1c2CCN(C)C(=O)[C@H](CC(C)C)NC(=O)[C@H](CC(N)=O)NC(=O)[C@H](C)NC(=O)[C@H](C)NC(=O)CCOCCOCCOCCOCCOCCOCCNC(=O)CCN1C(=O)C=CC1=O [MI-6PEG-AANL-D1] ({Propanoyl(3-maleimido)-PEG6}-AANL-X7) | 2.09 (≈ 1.66 µM) | 3.25 (≈ 2.58 µM) | 2.33 (≈ 1.85 µM) | 3.05 (≈ 2.42 µM) | 3.82 (≈ 3.03 µM) | +16% | +16% | 3 | 69.5 | 72.4 | 81.2 | 80 | +29% | 66.4 | 200 | – | – | – | – | – | – |
| CC[C@@]1(O)C(=O)OCc2c1cc1n(c2=O)Cc2c-1nc1ccccc1c2CCN(C)C(=O)[C@H](CC(C)C)NC(=O)[C@H](Cc1ccccc1)NC(=O)CNC(=O)CNC(=O)CCOCCOCCOCCOCCOCCOCCNC(=O)CCN1C(=O)C=CC1=O [MI-6PEG-GGFL-D1] ({Propanoyl(3-maleimido)-PEG6}-GGFL-X7) | – | – | – | – | – | +19% | +19% | 1.4 | 82.5 | 86.7 | 73.5 | 69.5 | +11% | 80 | 120 | 766.16 | 900.6 | +19% | 766.16 | 900.6 | colo320 (colorectal cancer cell) growth rate (%) [4, 14]: 766.16%; colo320 (colorectal cancer cell) mean tumor volume (mm^3) [4, 14]: 900.6 mm^3; SJSA-1 (sarcoma tissue) growth rate (%) [10, 15]: 1181.64%; SJSA-1 (sarcoma tissue) mean tumor volume (mm^3) [10, 15]: 1485.2 mm^3 |
| CC[C@@]1(O)C(=O)OCc2c1cc1n(c2=O)Cc2c-1nc1ccccc1c2CCN(C(=O)[C@H](CC(C)C)NC(=O)[C@H](Cc1ccccc1)NC(=O)CNC(=O)CNC(=O)CCOCCOCCOCCOCCOCCOCCNC(=O)CCN1C(=O)C=CC1=O)C(C)C [MI-6PEG-GGFL-Belotecan] ({Propanoyl(3-maleimido)-PEG6}-GGFL-Belotecan) | 1.91 (≈ 1.48 µM) | 3.69 (≈ 2.85 µM) | 1.24 (≈ 0.958 µM) | 2.21 (≈ 1.71 µM) | 2.86 (≈ 2.21 µM) | +5% | +5% | 1.8 | 77.3 | 83.1 | 68 | 73.2 | +22% | 73.6 | 100 | 671.56 | 789.4 | +5% | 671.56 | 789.4 | Mouse weight (%) [4, 17]: +27%; colo320 (colorectal cancer cell) growth rate (%) [4, 17]: 994.05%; colo320 (colorectal cancer cell) mean tumor volume (mm^3) [4, 17]: 1254.2 mm^3; colo320 (colorectal cancer cell) growth rate (%) [4, 14]: 671.56%; colo320 (colorectal cancer cell) mean tumor volume (mm^3) [4, 14]: 789.4 mm^3; Mouse weight (%) [10, 18]: +27%; SJSA-1 (sarcoma tissue) growth rate (%) [10, 18]: 1134.95%; SJSA-1 (sarcoma tissue) mean tumor volume (mm^3) [10, 18]: 1278.6 mm^3; SJSA-1 (sarcoma tissue) growth rate (%) [10, 15]: 995.32%; SJSA-1 (sarcoma tissue) mean tumor volume (mm^3) [10, 15]: 1254.1 mm^3 |
| CC[C@@]1(O)C(=O)OCc2c1cc1n(c2=O)Cc2c-1nc1ccccc1c2CCN(C(=O)[C@H](CC(C)C)NC(=O)[C@H](CC(N)=O)NC(=O)[C@H](C)NC(=O)[C@H](C)NC(=O)CCOCCOCCOCCOCCOCCOCCNC(=O)CCN1C(=O)C=CC1=O)C1CCCC1 [MI-6PEG-AANL-D8] ({Propanoyl(3-maleimido)-PEG6}-AANL-X8) | 1.27 (≈ 0.965 µM) | 1.98 (≈ 1.51 µM) | 1.54 (≈ 1.17 µM) | 2.27 (≈ 1.73 µM) | 2.97 (≈ 2.26 µM) | +15% | – | 2.2 | 68.4 | 78.9 | 81.1 | 70.2 | +17% | 71 | 200 | – | – | – | – | – | Mouse weight (%) [4, 17]: +33% |
